From the supplement of paper PMC12764529
± gives the half width of the 95% confidence interval.

Key:
[1] = folding stability dG unfold (combined trypsin and chymotrypsin); higher = more stable
Outline: (§1)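 How resistant each design was to proteolysis was captured as K50, inferred by Bayesian fitting of sequencing counts. Unfolding free energy was then derived relative to a sequence-predicted unfolded-state K50 and a shared folded-state K50, per protease or combined. Digestion used trypsin and chymotrypsin at 11 threefold-diluted concentrations plus a no-protease condition, on mini-proteins under 80 residues without cysteine in a PA-tagged cDNA display construct. Designs were kept only when AlphaFold2 dimer inter-PAE was above 15.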

[2] = folding stability dG unfold from trypsin proteolysis; higher = more stable
Outline: as §1

[3] = folding stability dG unfold from chymotrypsin proteolysis; higher = more stable
Outline: as §1

Row | Sequence | folding stability dG unfold [1] | folding stability dG unfold [2] | folding stability dG unfold [3]
1 | SAGGGSLEKIREAGKKGYLVRIELETGERRVIPIEDLIRDPRFGPDVPLAELRVRRIELLPPDDGLPLSAGG [r13_587_TrMRF] | 1.13 ± 0.062 kcal/mol | 1.27 ± 0.036 kcal/mol | 0.889 ± 0.069 kcal/mol
2 | SAGGGSMAASSVTSEEKPLPDGSSLSIPEITRPDNVATLTVEYYDPKTGTKYTFTLTIPISPDDTVTLSAGG [r13_190_JUSTAS] | 1.99 ± 0.15 kcal/mol | 1.79 ± 0.086 kcal/mol | 1.97 ± 0.06 kcal/mol
3 | SAGGGSMIKKTLEEEPVGESTVSKSTVTLPDGTPVSVTSTTTKVGNTWTTTTTTNYGSSTTTTTTTTSAGGS [r16_476_JUSTAS] | 0.156 ± 0.15 kcal/mol | -0.638 ± 0.21 kcal/mol | 0.419 ± 0.11 kcal/mol
4 | SAGGGSMTTVRLTREINLPSSVSDEEIIEEIKEELPENYEILEVKIEKDPKTGKYYIEAEVKIPKLGSAGGS [r16_396_JUSTAS] | 1.88 ± 0.056 kcal/mol | 0.904 ± 0.027 kcal/mol | 2.269 ± 0.02 kcal/mol
5 | SAGGGSSSLPAVPVSVETFTFPYKTEEEAKAAAEELAKKLEAEDGKPVKVEVSFDPATGTATVTITVVSAGG [r13_517_JUSTAS] | 3.815 ± 0.035 kcal/mol | 4.2 ± 0.16 kcal/mol | 3.791 ± 0.036 kcal/mol
6 | SAGGGSSSTTLTLREVTEVIVIPVPPEEEELAEELAKKYESQGIKVELERLPDGTWKLTLTYYRGVSLSAGG [r13_702_JUSTAS] | 1.03 ± 0.081 kcal/mol | 1.15 ± 0.11 kcal/mol | 0.827 ± 0.15 kcal/mol
7 | SAGGGSSVLSETVSVDPNNVTTTTTTYKAGDTTSTTTTTTTTTPPVPNLPLPPPPPVSPEAIALGLLLSAGG [r13_760_JUSTAS] | 0.481 ± 0.059 kcal/mol | 0.648 ± 0.052 kcal/mol | -0.0352 ± 0.18 kcal/mol
8 | SAGGGSSYTLLSESTSTDPATGATLTTTTYRAPDGTIYYDSTLTAPDGTTTGTATAVDPDGTPVTIALSAGG [r13_573_JUSTAS] | 1.41 ± 0.1 kcal/mol | 1.32 ± 0.035 kcal/mol | 1.39 ± 0.12 kcal/mol
9 | SAGGGSTSTSTSTSTDPATGATTTTTTTTVPTPDGSGTVTTTTTTVPGAAPDTDTAPVTTTTTTTPTPSAGG [r13_715_JUSTAS] | 2.32 ± 0.21 kcal/mol | 2.49 ± 0.1 kcal/mol | 2.14 ± 0.086 kcal/mol
10 | SAGGGSTVTTTTPDGTSVSTTTLPDGTVTATATYPDSTVSTTYDPATNTTTVTTTSGGTTVATTTVAASAGG [r13_748_JUSTAS] | 1.89 ± 0.065 kcal/mol | 2.48 ± 0.11 kcal/mol | 1.39 ± 0.031 kcal/mol
11 | SAGGGSVSITLELEEEEEIEEIVNEKGIPEPLEKRIKKKVTITISPPPTLSSSSSVTGLAEKAIEEKSAGGS [r16_359_JUSTAS] | 0.101 ± 0.31 kcal/mol | -0.425 ± 0.22 kcal/mol | 0.511 ± 0.069 kcal/mol
12 | SAGGGSVSVTPVKEIPGPGTTTLYRETHPDDRTVLITYNPATGTVTVTTYKGNTKTSTTTYNTPESLSAGGS [r16_457_JUSTAS] | 1.42 ± 0.098 kcal/mol | 1.05 ± 0.035 kcal/mol | 1.53 ± 0.13 kcal/mol
13 | SAGGGSYTIVVELGDKKVVFEIDKEEAVEEAVAKLPELGLEVEVLKKEKVLNEDGKPSVLVEVKVKPSAGGS [r8_336_TrMRF] | 0.631 ± 0.1 kcal/mol | -0.663 ± 0.17 kcal/mol | 1.12 ± 0.059 kcal/mol
14 | SAGGGTYIEIKVTYSDGTTETFTVPAKPEDIETVVKEIEDKLKELGGTITSIKIENGKITIEATIPDSAGGS [r16_662_TrMRF] | 3.06 ± 0.18 kcal/mol | 2.41 ± 0.19 kcal/mol | 3.3 ± 0.087 kcal/mol
15 | SAGGHHMTIETFEEPDKLTVVVDGDDPEATREYLLQKVKEESSRKPVKVTFTEDPNGKLTITFDLKEESAGG [r13_158_JUSTAS] | -0.17 ± 0.34 kcal/mol | -0.568 ± 0.26 kcal/mol | -0.186 ± 0.34 kcal/mol
16 | SAGGHTIMFPVKSPEQARDEIRDFARDQGLPIEPEDITIEQHEFKDPENGKKYRFFEITIDVTLKPPSAGGS [r16_587_TrROS] | 1.02 ± 0.15 kcal/mol | 0.0514 ± 0.056 kcal/mol | 1.49 ± 0.11 kcal/mol
17 | SAGGIEEAIKEGKTVIIRVKVIDKETGKEYERTIEVPANEEISLEELLKALLPPGYEVEIEVVELEPSAGGS [r8_127_TrROS_Hall] | 3.65 ± 0.4 kcal/mol | 3.78 ± 0.33 kcal/mol | 3.03 ± 0.51 kcal/mol
18 | SAGGIEIPVNPHPSEDGQPYVMFTLEIEPKDDNGKKQERPIPFMFDSPDDAEEFASEAAPDGYKIRISAGGS [r16_652_TrROS] | -0.0602 ± 0.15 kcal/mol | -0.86 ± 0.48 kcal/mol | 0.196 ± 0.11 kcal/mol
19 | SAGGIIPIENASWDELLNALKEAAEKGDPNVTITFQDPGRPYWIQIDPDENNIEVEHPNGETWRFKISAGGS [r16_481_TrROS] | 0.905 ± 0.18 kcal/mol | 0.749 ± 0.089 kcal/mol | 0.995 ± 0.14 kcal/mol
20 | SAGGIKEVKFDPKTNTLTVYLPEVGATITYNPTAGKLEIYSKDGKPKTIDVPTPSEMKKAILKAYKELKSAG [r5_467_TrMRF] | 2.69 ± 0.21 kcal/mol | 1.82 ± 0.064 kcal/mol | 2.84 ± 0.069 kcal/mol
21 | SAGGIKIERDPNMWKFEIPLPNKPLTIHISQSDGRYTIAIYENGKPIRTVPFPGPVDDAIERALKKLSAGGS [r8_276_TrROS] | 1.93 ± 0.054 kcal/mol | 1.66 ± 0.034 kcal/mol | 2.05 ± 0.032 kcal/mol
22 | SAGGIKIMIPPGMPEEEARELARMIASMLPDNGHNIDDVKVRPVKPMPPPDGEPHRMYEFEIKLEPPSAGGS [r16_266_TrROS] | 0.738 ± 0.11 kcal/mol | 1.01 ± 0.035 kcal/mol | 0.35 ± 0.1 kcal/mol
23 | SAGGIKIQDPDDGEWIEFPLPIRNPGDGKPYPFKVEIPVRRDPENGRPYFYIEIEFPGNGRKMTFPLRSAGG [r13_262_TrROS] | 0.918 ± 0.057 kcal/mol | 0.518 ± 0.06 kcal/mol | 1.12 ± 0.058 kcal/mol
24 | SAGGIKPDEPAIVLVKIPLPPGPNPEGGLEGPVLKTFPLEVGFPSLEELIEAVKELFPEGTEVEIIPSAGGS [r16_282_TrMRF] | 0.455 ± 0.1 kcal/mol | 1.06 ± 0.042 kcal/mol | -0.431 ± 0.13 kcal/mol
25 | SAGGIRIDDEGMIQIYFPGWRHTIPIKPNLEITEITIPDDGYIKITFRIPGKTVKHEFPMLPPGQEISAGGS [r16_635_TrROS] | 1.82 ± 0.27 kcal/mol | 2.35 ± 0.082 kcal/mol | 1.32 ± 0.1 kcal/mol
26 | SAGGIRIKPGQILVIDIERPTGNERKIIIPMDDPEEVIEQLGFPPENFRIKDIEVVPMPPEQAKDFLESAGG [r13_850_TrROS] | 0.321 ± 0.17 kcal/mol | -0.0896 ± 0.28 kcal/mol | 0.585 ± 0.1 kcal/mol
